Tests used:
ARTD2FL [1] = target: T1, ARTD2FL (Homo sapiens, UniProt Q9UGN5 1-583); assay: fluorescence polarization; affinity similar to oligo 40; FP: 10 mM Hepes pH 8.0, 150 mM NaCl, 0.1 mM TCEP, 0.1 mM EDTA, 10% glycerol, 25 C, 5 nM DNA (250 nM for stoichiometry); EMSA: 50 mM Hepes, 300 mM NaCl, 0.1 mM EDTA, 10% glycerol, 0.1 mM TCEP, on ice, 1 uM DNA; SEC-SAXS: 20 mM Hepes pH 7.5, 300 mM NaCl, 5% glycerol; conditions: protein: recombinant; tags: His6-thioredoxin removed by TEV (QS left); label: fluorescein
ARTD2FL [2] = target: T1, ARTD2FL; assay: EMSA; FP: 10 mM Hepes pH 8.0, 150 mM NaCl, 0.1 mM TCEP, 0.1 mM EDTA, 10% glycerol, 25 C, 5 nM DNA (250 nM for stoichiometry); EMSA: 50 mM Hepes, 300 mM NaCl, 0.1 mM EDTA, 10% glycerol, 0.1 mM TCEP, on ice, 1 uM DNA; SEC-SAXS: 20 mM Hepes pH 7.5, 300 mM NaCl, 5% glycerol; conditions: protein: recombinant; tags: His6-thioredoxin removed by TEV (QS left)
ARTD2FL [3] = target: T1, ARTD2FL; assay: fluorescence polarization; affinity similar to oligo 39; FP: 10 mM Hepes pH 8.0, 150 mM NaCl, 0.1 mM TCEP, 0.1 mM EDTA, 10% glycerol, 25 C, 5 nM DNA (250 nM for stoichiometry); EMSA: 50 mM Hepes, 300 mM NaCl, 0.1 mM EDTA, 10% glycerol, 0.1 mM TCEP, on ice, 1 uM DNA; SEC-SAXS: 20 mM Hepes pH 7.5, 300 mM NaCl, 5% glycerol; conditions: protein: recombinant; tags: His6-thioredoxin removed by TEV (QS left); label: fluorescein
ARTD2FL [4] = target: T1, ARTD2FL; assay: EMSA; no free DNA above 2:1; FP: 10 mM Hepes pH 8.0, 150 mM NaCl, 0.1 mM TCEP, 0.1 mM EDTA, 10% glycerol, 25 C, 5 nM DNA (250 nM for stoichiometry); EMSA: 50 mM Hepes, 300 mM NaCl, 0.1 mM EDTA, 10% glycerol, 0.1 mM TCEP, on ice, 1 uM DNA; SEC-SAXS: 20 mM Hepes pH 7.5, 300 mM NaCl, 5% glycerol; conditions: protein: recombinant; tags: His6-thioredoxin removed by TEV (QS left); hairpin, blunt
ARTD2WGR+CAT = ARTD2WGR+CAT (Homo sapiens, UniProt Q9UGN5 71-583); assay: EMSA; FP: 10 mM Hepes pH 8.0, 150 mM NaCl, 0.1 mM TCEP, 0.1 mM EDTA, 10% glycerol, 25 C, 5 nM DNA (250 nM for stoichiometry); EMSA: 50 mM Hepes, 300 mM NaCl, 0.1 mM EDTA, 10% glycerol, 0.1 mM TCEP, on ice, 1 uM DNA; SEC-SAXS: 20 mM Hepes pH 7.5, 300 mM NaCl, 5% glycerol; conditions: protein: recombinant; tags: His6-ZB removed by TEV (QS left); hairpin, blunt
ARTD2CAT = ARTD2CAT (Homo sapiens, UniProt Q9UGN5 235-583); assay: as above; conditions: protein: recombinant; tags: His6 removed by TEV (SM left); hairpin, blunt
ARTD2FL [5] = target: T1, ARTD2FL; assay: fluorescence polarization; Kd range 10-63 nM over oligos; binds as monomer (1:1); FP: 10 mM Hepes pH 8.0, 150 mM NaCl, 0.1 mM TCEP, 0.1 mM EDTA, 10% glycerol, 25 C, 5 nM DNA (250 nM for stoichiometry); EMSA: 50 mM Hepes, 300 mM NaCl, 0.1 mM EDTA, 10% glycerol, 0.1 mM TCEP, on ice, 1 uM DNA; SEC-SAXS: 20 mM Hepes pH 7.5, 300 mM NaCl, 5% glycerol; conditions: protein: recombinant; tags: His6-thioredoxin removed by TEV (QS left); label: fluorescein; hairpin, blunt
ARTD2FL [6] = target: T1, ARTD2FL; assay: EMSA; no free DNA only after 4:1; FP: 10 mM Hepes pH 8.0, 150 mM NaCl, 0.1 mM TCEP, 0.1 mM EDTA, 10% glycerol, 25 C, 5 nM DNA (250 nM for stoichiometry); EMSA: 50 mM Hepes, 300 mM NaCl, 0.1 mM EDTA, 10% glycerol, 0.1 mM TCEP, on ice, 1 uM DNA; SEC-SAXS: 20 mM Hepes pH 7.5, 300 mM NaCl, 5% glycerol; conditions: protein: recombinant; tags: His6-thioredoxin removed by TEV (QS left); blunt, palindromic, 2 copies
ARTD2FL [7] = target: T1, ARTD2FL; assay: EMSA; some free DNA even at 4:1; FP: 10 mM Hepes pH 8.0, 150 mM NaCl, 0.1 mM TCEP, 0.1 mM EDTA, 10% glycerol, 25 C, 5 nM DNA (250 nM for stoichiometry); EMSA: 50 mM Hepes, 300 mM NaCl, 0.1 mM EDTA, 10% glycerol, 0.1 mM TCEP, on ice, 1 uM DNA; SEC-SAXS: 20 mM Hepes pH 7.5, 300 mM NaCl, 5% glycerol; conditions: protein: recombinant; tags: His6-thioredoxin removed by TEV (QS left); nicked dumbbell, two hairpins, 1 strand
ARTD2FL [8] = target: T1, ARTD2FL; assay: fluorescence polarization; Kd range 10-63 nM over oligos; 1:1 to 4:1; FP: 10 mM Hepes pH 8.0, 150 mM NaCl, 0.1 mM TCEP, 0.1 mM EDTA, 10% glycerol, 25 C, 5 nM DNA (250 nM for stoichiometry); EMSA: 50 mM Hepes, 300 mM NaCl, 0.1 mM EDTA, 10% glycerol, 0.1 mM TCEP, on ice, 1 uM DNA; SEC-SAXS: 20 mM Hepes pH 7.5, 300 mM NaCl, 5% glycerol; conditions: protein: recombinant, tags: His6-thioredoxin removed by TEV (QS left), label: fluorescein

T1 sequence (Q9UGN5 whole entry): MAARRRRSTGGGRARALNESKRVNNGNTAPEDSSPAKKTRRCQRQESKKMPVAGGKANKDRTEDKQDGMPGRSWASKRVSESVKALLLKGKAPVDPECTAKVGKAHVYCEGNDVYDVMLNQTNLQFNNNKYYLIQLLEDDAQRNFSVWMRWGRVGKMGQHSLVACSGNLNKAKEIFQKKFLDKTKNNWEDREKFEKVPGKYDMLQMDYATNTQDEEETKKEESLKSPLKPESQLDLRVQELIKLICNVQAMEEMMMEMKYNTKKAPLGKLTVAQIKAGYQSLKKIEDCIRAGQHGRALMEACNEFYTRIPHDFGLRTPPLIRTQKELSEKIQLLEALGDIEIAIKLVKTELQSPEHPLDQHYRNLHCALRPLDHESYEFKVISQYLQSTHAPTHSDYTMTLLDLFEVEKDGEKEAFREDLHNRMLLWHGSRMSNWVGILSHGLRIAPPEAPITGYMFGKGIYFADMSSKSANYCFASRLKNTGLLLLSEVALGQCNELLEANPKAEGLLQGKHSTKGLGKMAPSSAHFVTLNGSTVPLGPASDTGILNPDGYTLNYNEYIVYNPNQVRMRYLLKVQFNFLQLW
ARTD2WGR+CAT, sequence (Q9UGN5 71-583): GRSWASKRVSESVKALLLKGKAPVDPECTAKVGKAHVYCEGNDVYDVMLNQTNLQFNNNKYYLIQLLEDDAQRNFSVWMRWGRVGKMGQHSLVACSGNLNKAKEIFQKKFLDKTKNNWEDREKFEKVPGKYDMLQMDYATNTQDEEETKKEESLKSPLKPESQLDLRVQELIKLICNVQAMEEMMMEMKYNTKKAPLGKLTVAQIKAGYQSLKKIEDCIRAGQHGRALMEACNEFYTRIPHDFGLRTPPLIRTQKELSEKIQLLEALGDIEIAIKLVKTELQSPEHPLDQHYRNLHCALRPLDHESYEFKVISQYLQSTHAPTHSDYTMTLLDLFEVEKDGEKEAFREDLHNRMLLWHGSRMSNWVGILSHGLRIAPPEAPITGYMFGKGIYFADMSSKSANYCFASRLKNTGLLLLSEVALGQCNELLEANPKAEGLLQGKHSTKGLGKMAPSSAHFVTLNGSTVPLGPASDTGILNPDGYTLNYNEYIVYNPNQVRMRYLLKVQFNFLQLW
ARTD2CAT, sequence (Q9UGN5 235-583): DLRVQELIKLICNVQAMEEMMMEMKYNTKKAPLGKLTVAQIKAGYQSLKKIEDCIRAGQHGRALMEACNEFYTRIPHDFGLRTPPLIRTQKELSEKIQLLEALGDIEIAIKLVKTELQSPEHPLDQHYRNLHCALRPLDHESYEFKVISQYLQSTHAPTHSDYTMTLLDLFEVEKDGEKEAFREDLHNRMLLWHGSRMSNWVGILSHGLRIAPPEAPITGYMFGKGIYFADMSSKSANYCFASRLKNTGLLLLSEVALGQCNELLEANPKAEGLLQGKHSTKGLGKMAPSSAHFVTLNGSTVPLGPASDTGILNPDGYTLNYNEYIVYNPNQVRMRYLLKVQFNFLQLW

B1: oligonucleotide 39 (labelled 19) (dsDNA)
DNA 1: CCAGGACCAGGGCGCAGATCACCTTGTTCTCCA
DNA 2: TGGAGAACAAGGTGATCTGCGCCCTGGTCCTGG
B1: binds (ARTD2FL [1]).

B2: oligonucleotide 20 (dsDNA)
DNA 1: CCAGGACCAGGGCGCAGATCACCTTGTTCTCCA
DNA 2: TGGAGAACAAGGTGATCTGCGCCCTGGTCCTGG
modifications: 5'-phosphate
B2: binds (ARTD2FL [2]).

B3: oligonucleotide 40 (labelled 20) (dsDNA)
DNA 1: CCAGGACCAGGGCGCAGATCACCTTGTTCTCCA
DNA 2: TGGAGAACAAGGTGATCTGCGCCCTGGTCCTGG
modifications: 5'-phosphate
B3: binds (ARTD2FL [3]).

GGAAGTTCTTTTGAACTTCC (structured_DNA, 5'-phosphate) [oligonucleotide 6]: binds (ARTD2FL [4]); binds (ARTD2WGR+CAT); no binding (ARTD2CAT).

GGAAGTTCTTTTGAACTTCC (structured_DNA, 5'-phosphate) [oligonucleotide 42 (labelled 6)]: binds (ARTD2FL [5]).

B4: oligonucleotide 18 (dsDNA)
DNA 1: GCCTTAGCGCGTATACGCGCTAAGGC
DNA 2: GCCTTAGCGCGTATACGCGCTAAGGC
modifications: 5'-phosphate
B4: binds (ARTD2FL [6]).

GGAAGTTCTTTTGAACTTCCTCGAAGCTTTTGCTTCGA (structured_DNA, 5'-phosphate) [oligonucleotide 2]: binds (ARTD2FL [7]).

GGAAGTTCTTTTGAACTTCCTCGAAGCTTTTGCTTCGA (structured_DNA, 5'-phosphate) [oligonucleotide 41 (labelled 2)]: binds (ARTD2FL [8]; nicked dumbbell, two hairpins, 1 strand).

B5: oligonucleotide 38 (labelled 18) (dsDNA)
DNA 1: GCCTTAGCGCGTATACGCGCTAAGGC
DNA 2: GCCTTAGCGCGTATACGCGCTAAGGC
modifications: 5'-phosphate
B5: binds (ARTD2FL [8]; blunt, palindromic, 2 copies).

Reference: paper PMC5052650, “Characterization of the DNA dependent activation of human ARTD2/PARP2”
